Molecular target: proprotein convertase PC2
Experiment: enzyme inhibition, pERTKR-MCA hydrolysis (fluorescence), competitive Ki

proprotein convertase PC2, sequence (P21661 109-637): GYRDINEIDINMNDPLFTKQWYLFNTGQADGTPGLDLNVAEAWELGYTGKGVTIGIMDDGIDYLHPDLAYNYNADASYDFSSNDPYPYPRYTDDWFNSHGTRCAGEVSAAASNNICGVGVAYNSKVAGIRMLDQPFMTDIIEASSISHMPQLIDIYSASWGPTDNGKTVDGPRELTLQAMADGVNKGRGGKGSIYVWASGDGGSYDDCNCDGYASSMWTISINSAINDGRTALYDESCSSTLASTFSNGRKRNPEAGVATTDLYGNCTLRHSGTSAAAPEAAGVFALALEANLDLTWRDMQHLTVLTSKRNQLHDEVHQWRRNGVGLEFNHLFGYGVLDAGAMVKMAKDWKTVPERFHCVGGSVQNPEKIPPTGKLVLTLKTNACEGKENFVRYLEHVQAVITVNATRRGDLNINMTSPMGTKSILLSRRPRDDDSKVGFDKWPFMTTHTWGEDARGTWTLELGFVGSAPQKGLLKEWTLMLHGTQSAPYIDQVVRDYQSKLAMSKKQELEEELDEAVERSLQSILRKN

Ki: 1500 µM
Substance: Ac-MRKRRR-NH2 (peptide)

From patent US20030087827A1
